Measurements reported in the supplement of paper PMC9112550, “Optimization of the antimicrobial peptide Bac7 by deep mutational scanning” (BMC Biology, 2022).

Test system: Escherichia coli TOP10
Assay: shrunken log2 fold change of peptide-encoding DNA abundance (4.5 h post-induction vs induction); higher = less antimicrobial activity (less host growth inhibition)
Settings: time post-induction: 4.5 h; library: site-saturation at positions 5, 18, 19, 20
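Also: peptides expressed intracellularly from a pBAD plasmid library in pooled LB shake-flask culture, induced with 0.3% L-arabinose, DNA abundance read by NGS, three biological replicates, DESeq2 with apeglm shrinkage.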

Row | Sequence | shrunken log2 fold change
1 | RRIRVRPPRLPRPRPRPHPLPRP | -0.435
2 | RRIRVRPPRLPRPRPRPHQLPRP | -0.243
3 | RRIRVRPPRLPRPRPRPHRHPRP | -0.357
4 | RRIRVRPPRLPRPRPRPHSAPRP | -0.119
5 | RRIRVRPPRLPRPRPRPHTLPRP | -0.571
6 | RRIRVRPPRLPRPRPRPHTMPRP | -0.252
7 | RRIRVRPPRLPRPRPRPHVYPRP | -0.13
8 | RRIRVRPPRLPRPRPRPHYQPRP | -0.213
9 | RRIRVRPPRLPRPRPRPIADPRP | 0.0367
10 | RRIRVRPPRLPRPRPRPIATPRP | 0.141
11 | RRIRVRPPRLPRPRPRPICYPRP | 0.19
12 | RRIRVRPPRLPRPRPRPIEFPRP | 0.0379
13 | RRIRVRPPRLPRPRPRPIEQPRP | -0.14
14 | RRIRVRPPRLPRPRPRPIERPRP | 0.0557
15 | RRIRVRPPRLPRPRPRPIFHPRP | -0.0258
16 | RRIRVRPPRLPRPRPRPIFIPRP | -0.328
17 | RRIRVRPPRLPRPRPRPIGKPRP | -0.129
18 | RRIRVRPPRLPRPRPRPIGQPRP | 0.0922
19 | RRIRVRPPRLPRPRPRPIGTPRP | -0.0334
20 | RRIRVRPPRLPRPRPRPIHFPRP | -0.0962
21 | RRIRVRPPRLPRPRPRPIHTPRP | -0.305
22 | RRIRVRPPRLPRPRPRPIINPRP | -0.644
23 | RRIRVRPPRLPRPRPRPIKAPRP | 0.0466
24 | RRIRVRPPRLPRPRPRPIKLPRP | -0.486
25 | RRIRVRPPRLPRPRPRPILTPRP | -0.443

Row | Sequence | shrunken log2 fold change
26 | RRIRVRPPRLPRPRPRPIMFPRP | -0.0691
27 | RRIRVRPPRLPRPRPRPIMIPRP | -1.08
28 | RRIRVRPPRLPRPRPRPINAPRP | -0.174
29 | RRIRVRPPRLPRPRPRPINEPRP | -0.3
30 | RRIRVRPPRLPRPRPRPINWPRP | -0.147
31 | RRIRVRPPRLPRPRPRPIPQPRP | 0.485
32 | RRIRVRPPRLPRPRPRPIPSPRP | -0.165
33 | RRIRVRPPRLPRPRPRPIPVPRP | -0.363
34 | RRIRVRPPRLPRPRPRPIRGPRP | 0.0551
35 | RRIRVRPPRLPRPRPRPIRRPRP | 0.0517
36 | RRIRVRPPRLPRPRPRPIRSPRP | -0.125
37 | RRIRVRPPRLPRPRPRPISCPRP | 0.0771
38 | RRIRVRPPRLPRPRPRPISMPRP | 0.0223
39 | RRIRVRPPRLPRPRPRPIVYPRP | -0.0876
40 | RRIRVRPPRLPRPRPRPIYFPRP | -0.23
41 | RRIRVRPPRLPRPRPRPIYIPRP | -0.755
42 | RRIRVRPPRLPRPRPRPKDKPRP | -0.13
43 | RRIRVRPPRLPRPRPRPKDTPRP | -0.038
44 | RRIRVRPPRLPRPRPRPKDVPRP | 0.00902
45 | RRIRVRPPRLPRPRPRPKEEPRP | 0.00911
46 | RRIRVRPPRLPRPRPRPKEWPRP | 0.146
47 | RRIRVRPPRLPRPRPRPKFLPRP | -0.00678
48 | RRIRVRPPRLPRPRPRPKFRPRP | 0.0323
49 | RRIRVRPPRLPRPRPRPKGRPRP | 0.211
50 | RRIRVRPPRLPRPRPRPKHIPRP | -0.47

Row | Sequence | shrunken log2 fold change
51 | RRIRVRPPRLPRPRPRPKHNPRP | -0.292
52 | RRIRVRPPRLPRPRPRPKIRPRP | 0.161
53 | RRIRVRPPRLPRPRPRPKKGPRP | 0.13
54 | RRIRVRPPRLPRPRPRPKKRPRP | 0.154
55 | RRIRVRPPRLPRPRPRPKLPPRP | -0.266
56 | RRIRVRPPRLPRPRPRPKMEPRP | -0.0457
57 | RRIRVRPPRLPRPRPRPKNMPRP | -0.866
58 | RRIRVRPPRLPRPRPRPKPGPRP | 0.507
59 | RRIRVRPPRLPRPRPRPKPHPRP | 0.264
60 | RRIRVRPPRLPRPRPRPKPSPRP | 0.313
61 | RRIRVRPPRLPRPRPRPKQEPRP | 0.239
62 | RRIRVRPPRLPRPRPRPKQPPRP | 0.11
63 | RRIRVRPPRLPRPRPRPKRWPRP | 0.706
64 | RRIRVRPPRLPRPRPRPKSEPRP | 0.0185
65 | RRIRVRPPRLPRPRPRPKSNPRP | -0.206
66 | RRIRVRPPRLPRPRPRPKSVPRP | -0.00455
67 | RRIRVRPPRLPRPRPRPKTDPRP | -0.202
68 | RRIRVRPPRLPRPRPRPKTNPRP | -0.117
69 | RRIRVRPPRLPRPRPRPKYDPRP | -0.269
70 | RRIRVRPPRLPRPRPRPKYHPRP | -0.373
71 | RRIRVRPPRLPRPRPRPKYKPRP | -0.574
72 | RRIRVRPPRLPRPRPRPLADPRP | 0.279
73 | RRIRVRPPRLPRPRPRPLCLPRP | -0.376
74 | RRIRVRPPRLPRPRPRPLCRPRP | -0.149
75 | RRIRVRPPRLPRPRPRPLCYPRP | -0.4

Row | Sequence | shrunken log2 fold change
76 | RRIRVRPPRLPRPRPRPLEEPRP | 0.0793
77 | RRIRVRPPRLPRPRPRPLHFPRP | -0.346
78 | RRIRVRPPRLPRPRPRPLHQPRP | 0.0791
79 | RRIRVRPPRLPRPRPRPLKFPRP | 0.044
80 | RRIRVRPPRLPRPRPRPLKTPRP | -0.0304
81 | RRIRVRPPRLPRPRPRPLLMPRP | -0.325
82 | RRIRVRPPRLPRPRPRPLLQPRP | 0.0881
83 | RRIRVRPPRLPRPRPRPLNHPRP | -0.17
84 | RRIRVRPPRLPRPRPRPLNKPRP | -0.323
85 | RRIRVRPPRLPRPRPRPLNPPRP | -0.113
86 | RRIRVRPPRLPRPRPRPLPLPRP | 0.0752
87 | RRIRVRPPRLPRPRPRPLQLPRP | -0.091
88 | RRIRVRPPRLPRPRPRPLRDPRP | 0.725
89 | RRIRVRPPRLPRPRPRPLRGPRP | 0.764
90 | RRIRVRPPRLPRPRPRPLSLPRP | -0.0403
91 | RRIRVRPPRLPRPRPRPLSMPRP | -0.0717
92 | RRIRVRPPRLPRPRPRPLWKPRP | -0.0321
93 | RRIRVRPPRLPRPRPRPLYVPRP | -0.705
94 | RRIRVRPPRLPRPRPRPMGCPRP | 0.0117
95 | RRIRVRPPRLPRPRPRPMHVPRP | 0.0592
96 | RRIRVRPPRLPRPRPRPMIWPRP | -0.179
97 | RRIRVRPPRLPRPRPRPMLEPRP | 0.0706
98 | RRIRVRPPRLPRPRPRPMLPPRP | 0.0351
99 | RRIRVRPPRLPRPRPRPMLYPRP | -0.375
100 | RRIRVRPPRLPRPRPRPMMLPRP | -0.0127

Row | Sequence | shrunken log2 fold change
101 | RRIRVRPPRLPRPRPRPMPIPRP | 0.055
102 | RRIRVRPPRLPRPRPRPMQEPRP | -0.0018
103 | RRIRVRPPRLPRPRPRPMQKPRP | 0.533
104 | RRIRVRPPRLPRPRPRPMRFPRP | 0.48
105 | RRIRVRPPRLPRPRPRPMRWPRP | 0.0506
106 | RRIRVRPPRLPRPRPRPMVDPRP | -0.0954
107 | RRIRVRPPRLPRPRPRPMWAPRP | 0.0354
108 | RRIRVRPPRLPRPRPRPMYPPRP | -0.413
109 | RRIRVRPPRLPRPRPRPNAMPRP | -0.234
110 | RRIRVRPPRLPRPRPRPNANPRP | 0.063
111 | RRIRVRPPRLPRPRPRPNCAPRP | 0.289
112 | RRIRVRPPRLPRPRPRPNFCPRP | -0.139
113 | RRIRVRPPRLPRPRPRPNGKPRP | -0.407
114 | RRIRVRPPRLPRPRPRPNHMPRP | -0.0124
115 | RRIRVRPPRLPRPRPRPNIAPRP | 0.249
116 | RRIRVRPPRLPRPRPRPNIVPRP | 0.000276
117 | RRIRVRPPRLPRPRPRPNKGPRP | -0.47
118 | RRIRVRPPRLPRPRPRPNLFPRP | -0.355
119 | RRIRVRPPRLPRPRPRPNMCPRP | -0.576
120 | RRIRVRPPRLPRPRPRPNMEPRP | -0.151
121 | RRIRVRPPRLPRPRPRPNNEPRP | -0.301
122 | RRIRVRPPRLPRPRPRPNNRPRP | -0.276
123 | RRIRVRPPRLPRPRPRPNPMPRP | 0.0227
124 | RRIRVRPPRLPRPRPRPNREPRP | -0.0873
125 | RRIRVRPPRLPRPRPRPNRHPRP | -0.195

Row | Sequence | shrunken log2 fold change
126 | RRIRVRPPRLPRPRPRPNSKPRP | -0.506
127 | RRIRVRPPRLPRPRPRPNTGPRP | -0.112
128 | RRIRVRPPRLPRPRPRPNTTPRP | -0.227
129 | RRIRVRPPRLPRPRPRPNTWPRP | -0.197
130 | RRIRVRPPRLPRPRPRPNVDPRP | -0.0826
131 | RRIRVRPPRLPRPRPRPNVLPRP | 0.0178
132 | RRIRVRPPRLPRPRPRPNVMPRP | -0.173
133 | RRIRVRPPRLPRPRPRPNWAPRP | -0.0443
134 | RRIRVRPPRLPRPRPRPPCYPRP | -0.356
135 | RRIRVRPPRLPRPRPRPPDLPRP | 0.195
136 | RRIRVRPPRLPRPRPRPPDQPRP | 0.124
137 | RRIRVRPPRLPRPRPRPPEDPRP | 0.425
138 | RRIRVRPPRLPRPRPRPPETPRP | -0.0362
139 | RRIRVRPPRLPRPRPRPPFYPRP | -0.0377
140 | RRIRVRPPRLPRPRPRPPGGPRP | 0.598
141 | RRIRVRPPRLPRPRPRPPGYPRP | 0.0333
142 | RRIRVRPPRLPRPRPRPPHKPRP | 0.274
143 | RRIRVRPPRLPRPRPRPPHPPRP | 0.261
144 | RRIRVRPPRLPRPRPRPPHYPRP | 0.1
145 | RRIRVRPPRLPRPRPRPPICPRP | -0.131
146 | RRIRVRPPRLPRPRPRPPKSPRP | 0.1
147 | RRIRVRPPRLPRPRPRPPLHPRP | 0.128
148 | RRIRVRPPRLPRPRPRPPLMPRP | 0.175
149 | RRIRVRPPRLPRPRPRPPLNPRP | -0.098
150 | RRIRVRPPRLPRPRPRPPMYPRP | -0.366
